Source: the Human Domainome abundance scans (Beltran et al. 2025)

B1: Tripartite motif-containing protein 6, residues 93 to 134; numbered along this chain, Q9C030 (parent)
chain: KAVLCADHGEKLQLFCQEDGKVICWLCERSQEHRGHHTFLVE

Variants of: B1
Assay: abundance fitness (aPCA) (normalised: wild type 0, dead -1); higher = more abundant; growth selection in yeast, the domain comes from the species named
Settings: Homo sapiens

Abundance fitness: each site, then its substitutions
L14: H 0.122, I 0.001, K 0.065, M 0.071, N -0.153, P -0.151, R 0.106, T -0.087, V -0.154, W 0.218
F15: A -0.248, C 0.001, D -0.329, E -0.126, G -0.087, K 0.044, L -0.222, M -0.029, N -0.418, P -0.209, Q 0.082, R -0.112, S -0.212, T -0.292
C16: A -0.284, D -0.218, E -0.174, G -0.304, H -0.337, K -0.275, M -0.584, N -0.298, R -0.354, S -0.286, T -0.747, V -0.451, W -0.802
Q17: A -0.109, C -0.024, E 0.053, F -0.512, G -0.341, H -0.235, I 0.376, K 0.248, L -0.364, M -0.605, P -0.297, R -0.043, S -0.316, T -0.086, V -0.373, W -0.335, Y -0.406
E18: A -0.428, G -0.434, H -0.265, I -0.364, K -0.349, L -1, Q -0.146, R -0.302, T -0.038, V -0.261, W -0.537
D19: A -0.807, C 0.627, G -0.757, H -0.289, I -0.888, R -0.584, S -0.391
G20: A -0.036, D 0.202, E 0.103, H -0.225, K -0.284, L 0.117, P -0.338, Q -0.053, R -0.111, S -0.331, T -0.142, V -0.431
K21: A -0.099, C -0.402, D -0.29, E 0.047, F -0.403, H -0.136, L -0.283, M -0.284, N -0.034, Q -0.358, R 0.086, T -0.183, V 0.086, W -0.403, Y -0.035
V22: A -0.047, E -0.127, G -0.019, N 0.093, Q -0.04, R 0.065, W -0.554
I23: A -0.463, E -0.581, G -0.346, H -0.202, L -0.361, N -0.091, Q -0.842, R -0.34, S -0.579, V -0.168, W -0.483
C24: A -0.886, D -0.822, E -0.627, G -1.16, I -0.753, K -0.615, L -1.1, P -0.517, Q -0.748, R -1.02, S -0.717, T -0.664, V -1.19, W -0.908, Y -0.725
W25: A 0.118, C 0.026, D 0.067, E 0.047, F 0.023, G -0.01, H 0.12, I -0.024, K 0.211, L -0.025, M 0.135, N 0.11, P -0.008, Q 0.12, R 0.173, S 0.068, T 0.094, V -0.033
L26: A -0.029, C -0.155, D -0.05, E 0.082, F -0.517, G -0.042, H -0.079, I -0.172, K 0.104, M 0.474, N -0.057, P -0.186, Q 0.259, R 0.084, S -0.059, T -0.011, V -0.05, W -0.169, Y -0.015
C27: A -0.755, E -0.863, G -0.66, K -1.14, L -0.8, P -0.536, Q -0.969, R -0.603, S -1.1, T -0.882, V -1.32
E28: A -0.218, C -0.494, D -0.101, G -0.197, H -0.481, I -0.414, K -0.062, L -0.272, M -0.326, P -0.376, Q -0.124, S -0.116, T 0.059, V -0.19, W -0.319, Y -0.362
R29: A -0.331, D -0.268, E -0.094, F -0.458, G -0.189, H 0.051, I -0.207, K -0.05, L -0.175, M -0.121, Q -0.164, S -0.289, V -0.299, Y -0.24
S30: A -0.016, C -0.104, D 0.002, E -0.148, F -0.575, G -0.135, H -0.209, I 0.167, K -0.307, M 0.026, N -0.142, P -0.7, Q 0.022, R -0.168, T -0.15, W -0.686, Y -0.313
Q31: A -0.121, C -0.095, D -0.228, E -0.159, G -0.083, H -0.125, K -0.103, L -0.343, M -0.057, P -0.167, S -0.031, T -0.045, V 0.004, W -0.593, Y -0.371
H33: A -0.392, C -0.246, G -0.643, M -0.549, P -0.771, R -0.364, S -0.28, T -0.685, W -0.804
R34: A -0.007, C -0.14, E -0.05, F 0.058, G -0.161, H 0.102, K -0.111, L 0.092, M -0.052, N -0.058, P -0.386, Q -0.041, S -0.035, T 0.071, V 0.035, Y 0.155
G35: A -0.116, D 0.022, I -0.377, K -0.244, L -0.202, M -0.397, P -0.366, Q -0.215, R -0.195, S -0.096, T -0.079, V -0.41, W -0.377
H36: A -0.472, D -0.399, E -0.355, G -0.442, K -0.558, L -0.523, M -0.606, Q -0.303, R -0.481, S -0.365, W -0.781, Y -1.03
H37: C -0.17, F 0.117, I -0.032, L -0.431, R 0.002, S -0.123, V -0.265, W -0.503
T38: E -0.265, G -0.177
F39: A 0.165, G 0.093, K 0.435, M 0.01, N 0.041, P -0.487, Q 0.139, R 0.19, T 0.111, V 0.117, W -0.149, Y 0.161
L40: A 0.169, C -0.188, D 0.091, E 0.009, G 0.052, H -0.062, K -0.154, M 0.207, N 0.115, P 0.11, Q 0.224, T 0.041, V -0.072, W -0.112
V41: A 0.16, C -0.165, E 0.029, G -0.11, I -0.246, L -0.034
